{"source": "patent US5739291", "about": "“Glutamate receptor antibodies” (The Salk Institute For Biological Studies, dated 1998)", "binders": {"B1": {"name": "glutamate receptor subunit GluR1 (receptor)", "chain": "ANFPNNIQIGGLFPNQQSQEHAAFRFALSQLTEPPKLLPQIDIVNISDTFEMTYRFCSQFSKGVYAIFGFYERRTVNMLTSFCGALHVCFITPSFPVDTSNQFVLQLRPELQEALISIIDHYKWQTFVYIYDADRGLSVLQRVLDTAAEKNWQVTAVNILTTTEEGYRMLFQDLEKKKERLVVVDCESERLNAILGQIVKLEKNGIGYHYILANLGFMDIDLNKFKESGRNVTGFQLVNYTDTIPARIMQQWRTSDSRDHTRVDWKRPKYTSALTYDGVKVMAEAFQSLRRQRIDISRRGNAGDCLANPAVPWGQGIDIQRALQQVRFEGLTGNVQFNEKGRRTNYTLHVIEMKHDGIRKIGYWNEDDKFVPAATDAQAGGDNSSVQNRTYIVTTILEDPYVMLKKNANQFEGNDRYEGYCVELAAEIAKHVGYSYRLEIVSDGKYGARDPDTKAWNGMVGELVYGRADVAVAPLTITLVREEVIDFSKPFMSLGISIMIKKPQKSKPGVFSFLDPLAYEIWMCIVFAYIGVSVVLFLVSRFSPYEWHSEEFEEGRDQTTSDQSNEFGIFNSLWFSLGAFMQQGCDISPRSLSGRIVGGVWWFFTLIIISSYTANLAAFLTVERMVSPIESAEDLAKQTEIAYGTLEAGSTKEFFRRSKIAVFEKMWTYMKSAEPSVFVRTTEEGMIRVRKSKGKYAYLLESTMNEYIEQRKPCDTMKVGGNLDSKGYGIATPKGSALRNPVNLAVLKLNEQGLLDKLKNKWWYDKGECGTGGGDSKDKTSALSLSNVAGVFYILIGGLGLAMLVALIEFCYKSRSESKRMKGFCLIPQQSINEAIRTSTLPRNSGAGASGGGGSGENGRVVSQDFPKSMQSIPCMSHSSGMPLGATGL"}}, "biological_target": "glutamate receptor subunit GluR2 (rat)", "sequence (chain, as listed by the source limits assumed)": "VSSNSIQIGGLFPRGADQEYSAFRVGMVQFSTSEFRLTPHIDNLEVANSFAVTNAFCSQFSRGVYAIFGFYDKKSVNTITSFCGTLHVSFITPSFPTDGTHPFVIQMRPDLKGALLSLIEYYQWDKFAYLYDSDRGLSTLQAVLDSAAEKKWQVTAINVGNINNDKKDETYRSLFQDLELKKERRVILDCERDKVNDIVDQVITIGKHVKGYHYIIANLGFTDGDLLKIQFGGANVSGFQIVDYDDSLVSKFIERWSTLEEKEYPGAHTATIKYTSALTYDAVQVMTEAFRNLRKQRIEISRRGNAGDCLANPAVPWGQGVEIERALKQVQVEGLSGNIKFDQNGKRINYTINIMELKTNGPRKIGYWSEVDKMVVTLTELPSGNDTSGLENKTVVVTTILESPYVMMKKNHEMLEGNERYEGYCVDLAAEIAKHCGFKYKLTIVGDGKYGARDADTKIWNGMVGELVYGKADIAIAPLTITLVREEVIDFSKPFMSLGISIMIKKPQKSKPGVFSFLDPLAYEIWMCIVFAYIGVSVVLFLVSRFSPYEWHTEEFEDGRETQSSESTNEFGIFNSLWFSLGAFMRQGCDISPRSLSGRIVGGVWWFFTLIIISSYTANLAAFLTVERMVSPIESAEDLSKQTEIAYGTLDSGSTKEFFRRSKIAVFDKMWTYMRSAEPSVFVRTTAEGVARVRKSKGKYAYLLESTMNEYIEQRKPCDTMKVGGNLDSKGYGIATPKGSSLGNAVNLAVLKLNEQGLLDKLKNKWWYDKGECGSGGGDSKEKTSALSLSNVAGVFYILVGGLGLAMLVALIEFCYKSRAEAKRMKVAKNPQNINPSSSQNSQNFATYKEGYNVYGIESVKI", "experiment": "cell-based or functional assay", "data": [{"binder": "B1", "values": [{"measurement": "KA-evoked currents in Xenopus oocytes on co-expression, against the summed responses of singly injected oocytes", "result": "~4", "unit": "fold"}]}]}
